Measurements reported in the supplement of paper PMC12042874.
± gives the uncertainty stated by the source.

assay: amyloid nucleation score (Sup35N fusion, yeast selection) (log enrichment); library NNK1; higher = more nucleation; inactive = no reads after selection
Procedure, shortened: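 DiMSum was used to calculate nucleation scores as log enrichment of output over input reads, centred on the mode score of non-aggregating sequences. Sequences with fewer than 100 input reads were not scored. Input and output came from Illumina sequencing of plasmid inserts in psi-negative yeast expressing peptides of 20 random codons fused to Sup35N, induced 24 hours with 100 μM copper sulfate and then grown 7 days at 30°C on medium lacking adenine and uracil.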

Compared with MFEFKKPD, GVCWRDYGLEAGTGAQVQQC is higher in amyloid nucleation score: -0.015 ± 0.73 for the first, 3.03 ± 0.15 for the second.

IFGGLH and KKRICFMSLSQRWRSRTTCW are within error of each other in amyloid nucleation score: 0.631 ± 0.5 for the first, 0.164 ± 0.3 for the second.

QSISYR and WRCRGCMWAHRAWGNSSCV are within error of each other in amyloid nucleation score: -0.956 ± 0.7 for the first, -0.655 ± 0.98 for the second.

TGNHSEVTT and ISGFMLQVLTRRYSWMSA are within error of each other in amyloid nucleation score: 0.233 ± 0.32 for the first, -0.498 ± 0.88 for the second.

RLCIVLSRHMPYTDRMLVMP and LVYLA are within error of each other in amyloid nucleation score: 0.259 ± 0.26 for the first, -0.569 ± 0.87 for the second.

VDTLLARIIRLRHQFSNTAV and WGNLCRNYD are within error of each other in amyloid nucleation score: 0.16 ± 0.29 for the first, 0.004 ± 0.28 for the second.

Going from VQNDTTLHVIFILGRAW to VKNWMYWQGMSVCRVCRGFY, the amyloid nucleation score falls from 2.44 ± 0.12 to 1.02 ± 0.38.

First: TYILVFSVIYPSLKYECFCQ
Second: YVDDGMCSAICYSTVNNMSN
The amyloid nucleation score of the first is lower: 1.6 ± 0.61 for the first, 8.666 ± 0.047 for the second.

RRSCRRTGGTSASKPSRQAF and NCLNAMVWSLLMLTDHLAPQ are within error of each other in amyloid nucleation score: 0.013 ± 0.45 for the first, -0.157 ± 0.72 for the second.

HGMWNTQVTVTWYTSADLFV and GYKMAYNFCDEKEGLNWRVG are within error of each other in amyloid nucleation score: -0.093 ± 0.52 for the first, -0.257 ± 0.52 for the second.

IMTESCCG and MQTVNFVFTRLIFISDFTIQ are within error of each other in amyloid nucleation score: 0.743 ± 0.54 for the first, 0.688 ± 0.26 for the second.

HWSSSVSVNGVRYTFMSTSR and RGAQARSQCCMVVMSVESRS are within error of each other in amyloid nucleation score: -2.08 ± 2.7 for the first, 0.628 ± 0.46 for the second.

ASTSYPWKSGVMVGGKLKNP and ENTVDPLRLDWCSGTSVWYK are within error of each other in amyloid nucleation score: 0.287 ± 0.53 for the first, 0.54 ± 0.88 for the second.

Going from IRDTLNVCNKEEQKSRGS to IIHFKSGIWNATDGCLIMCV, the amyloid nucleation score rises from -0.358 ± 0.37 to 0.793 ± 0.65.

TKWTGVFIWSLKAD and TNFDGYLFRFHIWRGCLVT are within error of each other in amyloid nucleation score: -0.051 ± 0.84 for the first, 0.188 ± 1 for the second.

KRPHGDH and WHQEWRKWADKGLAIRT are within error of each other in amyloid nucleation score: 0.416 ± 0.73 for the first, 0.836 ± 0.97 for the second.

First: VYMMGGTLLRPYAILSYLDP
Second: AIFGVTPKSVITTYNFTLHM
The amyloid nucleation score of the first is lower: 0.465 ± 0.3 for the first, 6.01 ± 0.088 for the second.

First: SMLMFIQIV
Second: GTLGSWSIIISLIRHSECLC
The amyloid nucleation score of the first is higher: 1.96 ± 0.1 for the first, -0.659 ± 0.46 for the second.

First: IIQCNVTYAS
Second: YRVYRRLSV
The amyloid nucleation score of the first is higher: 3.63 ± 0.12 for the first, 0.526 ± 0.45 for the second.

LKRVGSNLNT and IIMRTMHHAKRLSGLKP are within error of each other in amyloid nucleation score: -0.229 ± 1.4 for the first, 0.996 ± 0.44 for the second.

KFGDPSRAAILNMSGSISDK and EGRYTRDFKCRFSSERHSPS are within error of each other in amyloid nucleation score: -0.189 ± 0.46 for the first, 0.014 ± 0.47 for the second.

First: CFLVGSWTPI
Second: NIGVCQIFLDTGMGISVFLN
The amyloid nucleation score of the first is lower: 0.215 ± 0.76 for the first, 6.06 ± 0.08 for the second.

FVFHVGDDARGSCHKCRLWN and FQYEWNLVIW are within error of each other in amyloid nucleation score: 0.665 ± 0.62 for the first, -0.074 ± 0.4 for the second.

Going from TGLVLVGMSVSCVRYRCSND to LVLLQVVIYGHLQCSFYQMH, the amyloid nucleation score rises from 0.009 ± 0.39 to 1.8 ± 0.23.

MLGCFISFTIKLLG and PMPSLECNGVHFIKGIRLTL are within error of each other in amyloid nucleation score: 1.39 ± 0.11 for the first, 0.754 ± 0.99 for the second.

VRPNGVYSFRWTYGFPIQRA and GLVSRLCRFHFMCIACNPKL are within error of each other in amyloid nucleation score: 0.321 ± 0.6 for the first, 0.585 ± 0.43 for the second.

LVASSFDYMMLSSVGRGYGL and TVSSLSWDGMPLLPVTLIFS are within error of each other in amyloid nucleation score: -0.245 ± 0.3 for the first, -1.01 ± 1.2 for the second.

ASGDMSDWISWLGSMRCKIR and DSLLEIGRSGVNELVGGLAD are within error of each other in amyloid nucleation score: -0.082 ± 1 for the first, -0.422 ± 1.2 for the second.

YGGLEVSLGALQNVGVKPYT and MCSKWDFQVLSHTDSWVWV are within error of each other in amyloid nucleation score: -0.189 ± 1.1 for the first, -0.67 ± 0.5 for the second.

Compared with QNFNFSWVYTFYTRICTLYF, NALILRGLVCLSWKLELTHF is lower in amyloid nucleation score: 5.872 ± 0.047 for the first, -0.866 ± 1.9 for the second.

Compared with NKYNSYKKNYPKRIDWSGLN, FLVHSTGGHVNISFTSVIYL is higher in amyloid nucleation score: -0.983 ± 1.4 for the first, 7.889 ± 0.048 for the second.

RDPVLDVGLRCMWHNGGPFG and LSVQTWFGLSACYTGQAKYS are within error of each other in amyloid nucleation score: -0.035 ± 1.4 for the first, 0.171 ± 1.2 for the second.

For FSNAIKQVFQGYLWTNPW, the amyloid nucleation score was -0.188 ± 0.3.

For IIPPV, the amyloid nucleation score was “inactive”.
With THYIFLVYLWVYPGTDGWQR the amyloid nucleation score was “inactive”.
In the case of RLSHKNGVCTLAFIYVPDNA, the amyloid nucleation score is reported as “inactive”.
In the case of AFSTG, the amyloid nucleation score is reported as “inactive”.
With RTGRAYLWGSWSLEHHNLGG the amyloid nucleation score was “inactive”.
